Measurements: US20240376149A1, “Novel Modulators of GABABR1a” (VIB VZW, priority 2021, published 2024)
Where no end group is shown, it is not given here.

Assays:
[1] = biological target: T1, sushi domain 1 (SD1) of GABABR1a (Homo sapiens, UniProt Q9UBS5); experiment: Isothermal titration calorimetry (ITC) direct binding assay; details: peptide titrated into Sushi-1 protein in PBS
T1 construct: The synthetic gene encoding for residues 26-96 of the Sushi1 protein was cloned into a pFloat-SUMO vector; His-SUMO (with 3C protease site) (N, cleaved yes); made in house; host or cells: E. coli BL21(DE3)
Text: In contrast to the FP assay, the isothermal titration calorimetry (ITC) assay is a direct binding assay.
For biophysical and structural biology purposes the Sushi1 protein was expressed in a bacterial expression system. The synthetic gene encoding for residues 26-96 of the Sushi1 protein was cloned into a pFloat-SUMO vector, generating a His-tagged SUMO-Sushi1 fusion protein. The construct also contained a 3C protease cleavage site to remove the His-SUMO-tag. The pFloat-SUMO-Sushi1 plasmid was transformed in BL21(DE3) cells and plated on kanamycin ([…]) containing LB agar plates. A small LB culture, supplemented with […] kanamycin, was inoculated with a single colony of BL21(DE3)(pFloat-SUMO-Sushi1) and grown overnight at 37° C. 1 liter LB cultures were subsequently inoculated with 20 ml of this preculture and grown at 37° C. until OD600 reached 0.8. At this point protein expression was induced using 0.5 mM isopropyl β-D-1-thiogalactopyranoside (IPTG). Cells were incubated further overnight at 20° C. and subsequently harvested by centrifugation (Beckman rotor 8.1000, 5000 rpm, 15 min, 4C). The pellet was resuspended in 20 mM Tris pH 7.5, 500 mM NaCl, 10 mM imidazole, 5 mM β-mercaptoethanol, 0.1 mg/mL 4-(2-aminoethyl) benzenesulfonyl fluoride hydrochloride (AEBSF), 1 μg/mL leupeptine, 50 μg/mL DNasel and 20 mM MgCl2. The cells were lysed using a French press (Constant Systems) at 20 kpsi and the cell debris was removed by centrifugation. The cell lysate was loaded on a Ni-sepharose FF HiLoad column (GE Healthcare), equilibrated in 20 mM Tris pH 7.5, 500 mM NaCl, 10 mM imidazole, 5 mM […]. The bound proteins were eluted using a linear gradient to 500 mM imidazole. Fractions containing the His-SUMO-Sushi1 protein were pooled and dialysed overnight to 20 mM Tris pH 7.5, 150 mM NaCl, while cleaving with 3C protease. The cleaved sample was loaded again on a Ni-sepharose FF HiLoad column, equilibrated in the same buffer. The FT, containing the Sushi1 protein, was concentrated and applied to a BioRad S100 16/60 size exclusion column, equilibrated in 50 mM KPi buffer pH 6.0, 50 mM NaCl.
(§1) The Sushi-1 protein was dialysed overnight to PBS buffer and diluted to 30 μM in the same buffer. The peptides were resuspended in PBS at a stock concentration of 3 mM and diluted further in the same buffer to 300 μM. ITC experiments were performed on a Microcal ITC200 device. Titrations comprised 26×1.5 μL injections of peptide into protein, with 90 s intervals. An initial injection of ligand (0.5 μL) was made and discarded during data analysis. The data were fitted to a single binding site model using the Microcal LLC ITC200. Original software provided by the manufacturer.

[2] = biological target: T2, GABABR1a-SD1 (SD1-FITC-9mer complex) (Homo sapiens, UniProt Q9UBS5); experiment: Fluorescence polarization (FP) competition assay with FITC-9mer; assay type: binding; details: peptide at 50 μM; inhibition of FITC-9mer binding to SD1
T2 construct: The synthetic gene encoding for residues 26-96 of the Sushi1 protein was cloned into a pFloat-SUMO vector; His-SUMO (with 3C protease site) (N, cleaved yes); made in house; host or cells: E. coli BL21(DE3)
Protocol: (§2) Intrigued by the surprising results of the 5-mer, it was decided to set up a medium- to high-throughput screen to optimize the 5-mer sequence. Several assays were tested to find a reproducible, robust and cost-effective assay that is also suitable for high-throughput screening. A fluorescence polarization (FP) assay was selected. FP measurements are well-known for receptor binding assays. The assay is based on the rotational movement of fluorescently labelled molecules in solution. […] The FP assay was optimized using the FITC labelled sAPP 9-mer (FIG. 1).
(§3) To screen for GABABR1a binders using unlabelled test compounds, the assay was turned into a competition assay using FITC-9mer. […] To validate this inhibitor assay, the IC50 values were determined of the 17-mer, 9-mer, 5-mer as well as those from 3 negative controls: 10-mer, scrambled 17-mer and a scrambled 9-mer (FIG. 2).
To determine if the peptides of this application were able to disrupt the SD1-9-mer complex, each peptide (in single point or dose-response curve) tested was incubate with SD1 protein for 1 h at RT. After this initially incubation, FITC-9mer was added to the previous mix and incubated during 2 h at RT. The signal intensity was measure in an appropriate plate reader using the following settings: Number of flashes per well: 200; Excitation: F482-16; Dichroic filter: FLP 504; Emission A F530-40; Gain A: 738, Gain B: 736. The assay was conducted in a 384-well plate.

[3] = biological target: T3, HEK293 cells expressing the ectodomain of GABABR1a comprising SD1 (Homo sapiens, UniProt Q9UBS5); experiment: Flow-cytometry cell-based binding assay, competition with biotinylated 9-mer; details: peptide at 100 μM, inhibition of biotin-9mer (10 μM) binding
T3 construct: HEK293 were transfected with plasmids encoding the ectodomain of GABABR1a (as in Rice et al., 2019); expressed in transfected cells; host or cells: HEK293
Protocol: HEK cells expressing GABABR1a-SD1 were incubated with peptides of the application and the binding of 9-mer in the presence of the peptides was measured. The 9-mer peptide is biotinylated and detected with a commercial antibody.
Next, the top ranking compounds were tested in a cell-based binding assay. HEK293 cells were transformed to express the ectodomain of GABABR1a comprising SD1. In this cell-based assay, SD1 is expressed on the GABABR1a ectodomain and can adopt a more physiological conformation, compared to the purified SD1 protein used in the primary assay (FP assay).
HEK293 were transfected with plasmids encoding the ectodomain of GABABR1a (as in Rice et al., 2019), carrying a His-tag at the N-terminal. After 24 h of expression, cells were harvested and adjusted to a concentration of 1×10^6 cells/mL in ice-cold 2% FBS/PBS. Incubation with each peptide (in dose-response curve) was carried out at 4° C. for 1 h, followed by incubation with the biotion-9mer (10 μM) peptide during 30 min. Detection antibodies recognizing either His protein or biotin were added for a period of 30 min. The assay plate containing the cells was loaded into the Attune NxT Cytometer, parameters were adjusted accordingly with the cell type and signal intensity. In each experiment, positive and negative control were added to the plate.

[4] = test system: acute mouse hippocampal slices, CA3-CA1 Schaffer collateral (SC) synapses; experiment: Ex vivo fEPSP short-term facilitation in acute hippocampal slices (multi-electrode array); assay type: cell-based
Protocol: The effect of a selection of GABABR1a-SD1 binders on synaptic transmission was tested in an ex vivo experiment using acute mouse hippocampal slices comprising an intact circuit of CA3-CA1 Schaffer collateral (SC) synapses. In short, a burst of 5 stimuli at 20 Hz was applied to Schaffer collaterals to induce short-term facilitation, which inversely correlates with the probability of neurotransmitter release.
Recordings were done in C57BL/6J mice (2 months old). For tissue preparation, mice were anesthetized with isoflurane and rapidly decapitated to prepare acute 300 μm-thick parasagittal brain slices on a Leica VT1200 vibratome. Slicing was performed in cold sucrose based cutting solution (ACSF) that consisted of (in mM): 87 NaCl, 2.5 KCl, 1.25 NaH2PO4, 10 glucose, 25 NaHCO3, 0.5 CaCl2, 7 MgCl2, 75 sucrose, 1 kynurenic acid, 5 ascorbic acid, 3 pyruvic acid (pH 7.4 with 5% CO2/95% O2). Slices were allowed to recover at 34° C. for 35 min, and subsequently maintained at room temperature for at least 30 min before use. Before recordings, slices were preincubated in artificial cerebrospinal fluid (ACSF, 119 mM NaCl, 2.5 mM KCl, 1 mM NaH2PO4, 11 mM glucose, 26 mM NaHCO3, 4 mM MgCl2 and 4 mM CaCl2, pH 7.4) containing peptide of interest or scrambled/control peptide (1 or 10 uM). Preincubation was performed in the multielectrode array recording chamber (60MEA200/30iR-Ti-gr, Multichannel Systems) for 60 min at 32° C., using custom-made local carbogenation rings (5% CO2/95% 02). Field excitatory post-synaptic potentials (fEPSPs) were recorded from Schaffer collateral-CA1 synapses by stimulating and recording from the appropriate (visually identified) electrodes (MEA-2100, Multichannel Systems). Input-output curves were recorded for each slice by applying single-stimuli ranging from 500 to 2750 mV with 250 mV increments. […] Train stimulations of 10, 20 and 50 Hz (5 stimuli per train) were recorded with 10 minutes intervals. Recordings were processed and analysed using Multi Channel Experimenter software (Multi Channel Systems).

[5] = biological target: T4, Sushi domain 1 of the human GABA B1a receptor (human, UniProt Q9UBS5 26-96); experiment: FP competition vs FITC-9mer on purified SD1; 17-mer
T4 construct: Purified recombinant protein from E. coli; also called SD1; GABABR1a-SD1
Protocol: as §2, §3

[6] = biological target: T4, Sushi domain 1 of the human GABA B1a …; experiment: fluorescence polarization, SD1 titrated against 1.2 µM FITC-9mer; concentration is that of SD1
[7] = biological target: T4, Sushi domain 1 of the human GABA B1a …; experiment: fluorescence polarization, SD1 titrated against 3.7 µM FITC-9mer; concentration is that of SD1
[8] = biological target: T4, Sushi domain 1 of the human GABA B1a …; experiment: fluorescence polarization, SD1 titrated against 0.05 µM FITC-9mer; concentration is that of SD1
[9] = biological target: T4, Sushi domain 1 of the human GABA B1a …; experiment: fluorescence polarization, SD1 titrated against 0.14 µM FITC-9mer; concentration is that of SD1
[10] = biological target: T4, Sushi domain 1 of the human GABA B1a …; experiment: fluorescence polarization, SD1 titrated against 0.41 µM FITC-9mer; concentration is that of SD1
[11] = biological target: T4, Sushi domain 1 of the human GABA B1a …; experiment: fluorescence polarization, SD1 titrated against 11.11 µM FITC-9mer; concentration is that of SD1
[12] = biological target: T4, Sushi domain 1 of the human GABA B1a …; experiment: ITC
Protocol: In the mutagenesis experiment of Example 1 we also included an 8-mer lacking position 9.
as §1, with “ITC₂₀₀.” for “ITC200.”

T4 sequence (Q9UBS5 26-96 limits assumed): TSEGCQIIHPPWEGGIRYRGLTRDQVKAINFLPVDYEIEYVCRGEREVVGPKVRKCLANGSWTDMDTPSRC
T2 sequence (Q9UBS5 26-96, one chain of several): as the sequence (Q9UBS5 26-96 limits assumed) above
T1 sequence (Q9UBS5 26-96): as the sequence (Q9UBS5 26-96 limits assumed) above
T3 sequence (Q9UBS5 20-591 limits assumed): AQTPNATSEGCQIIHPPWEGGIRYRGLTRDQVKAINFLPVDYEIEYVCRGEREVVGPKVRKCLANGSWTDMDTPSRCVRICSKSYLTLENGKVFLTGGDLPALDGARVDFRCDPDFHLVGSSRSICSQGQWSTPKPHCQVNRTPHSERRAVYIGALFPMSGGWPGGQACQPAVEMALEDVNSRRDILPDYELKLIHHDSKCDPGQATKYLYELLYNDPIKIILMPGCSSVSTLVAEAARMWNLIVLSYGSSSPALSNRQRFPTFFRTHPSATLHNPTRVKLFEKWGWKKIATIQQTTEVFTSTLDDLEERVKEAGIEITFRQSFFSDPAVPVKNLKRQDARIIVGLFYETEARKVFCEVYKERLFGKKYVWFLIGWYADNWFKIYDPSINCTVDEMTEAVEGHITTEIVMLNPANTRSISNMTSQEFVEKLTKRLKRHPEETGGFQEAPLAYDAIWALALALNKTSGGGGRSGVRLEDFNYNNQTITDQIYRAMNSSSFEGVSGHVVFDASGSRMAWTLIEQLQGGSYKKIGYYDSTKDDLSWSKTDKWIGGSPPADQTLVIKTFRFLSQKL

## CC[C@H](C)[C@H](NC(=O)[C@H](N)CC(=O)O)C(=O)N[C@@H](Cc1c[nH]c2cc(Cl)ccc12)C(=O)N[C@@H](Cc1c[nH]c2ccccc12)C(=O)N[C@@H](CO)C(=O)O [VIB-0068894]
[1]
  ITC Kd: bound as good as the 17-mer
[2]
  inhibition at 50 µM: 96.8%
[3]
  inhibition at 100 µM: 84.2%

## DDSDVWWGGADTDYADG [Peptide 17-mer, DDSDVWWGGADTDYADG]
[4]; peptide 1 μM, vs scrambled control peptide, burst of 5 stimuli at 20 Hz, listed as sAPP 17-mer
  Ex vivo assay 1 μM (short-term facilitation): increased the facilitation
[4]; peptide 1 μM, CGP-54626 10 μM preincubation
  Increase in facilitation after preincubation with GABABR antagonist CGP-54626: blocked
[4]; peptide 10 μM, vs scrambled negative control at 10 μM
  Ex vivo assay 10 μM (short-term facilitation): statistically significant increase in short-term facilitation

## DDSDVWWGGADTDYADG [wild-type sAPP 17-mer]
[5]
  IC50: 1.7 µM

## DDSDVWWGG (also: FITC label, site not given here, also called FITC-9mer) [FITC labelled sAPP 9-mer]
[6]
  EC50 (read off the curve): ~2 µM
[7]
  EC50 (read off the curve): ~4 µM
[8]
  EC50 (read off the curve): ~0.8 µM
[9]
  EC50 (read off the curve): ~1 µM
[10]
  EC50 (read off the curve): ~1 µM
[11]
  EC50 (read off the curve): ~8 µM

## ADSAVWWGG [VIB_P05]
[12]
  binding result: binds

## DDSDVAWGG [VIB_P17]
[12]
  binding result: binds

## DDSDVWAGG [VIB_P18]
[12]
  binding result: binds

## DDSDAWWGG [VIB_P16]
[12]
  binding result: binds
